Measurements: patent publication US20170081395A1 (LABRYS BIOLOGICS, published 2017)
Ends that are not written are not given here.

B1: human α-CGRP 1-36-COOH (peptide)
peptide: ACDTATCVTHRLAGLLSRSGGVVKNNFVPTNVGSKA-OH
modifications: ends and bridges not checked
notes: also called Peptide 1-36 (not amidated at the C-terminus)

biological target: T1, antibody G1 Fab fragment; test: Biacore, 10 uM peptide with 50 nM G1 Fab over human α-CGRP on chip
T1 construct: purified on Ni-NTA (tag not described); also called antibody G1 Fabs
T1 sequence (VH, as listed by the source, chain 1 of 2): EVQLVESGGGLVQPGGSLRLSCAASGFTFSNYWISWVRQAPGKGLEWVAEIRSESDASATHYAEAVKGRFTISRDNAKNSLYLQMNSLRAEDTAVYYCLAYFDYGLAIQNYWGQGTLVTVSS
T1 sequence (VL, as listed by the source, chain 2 of 2): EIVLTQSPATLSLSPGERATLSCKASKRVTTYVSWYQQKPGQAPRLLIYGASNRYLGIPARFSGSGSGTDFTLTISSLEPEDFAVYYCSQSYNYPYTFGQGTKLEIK

Binder | % of binding blocked
SGGVVKNNFVPTNVGSAAF-NH2 (also: N-terminal biotin when captured on the chip) [human α-CGRP K35A (19-37)] | 100%
SGGVVKNNFVPTNVGSEAF-NH2 (also: N-terminal biotin when captured on the chip) [human α-CGRP K35E (19-37)] | 100%
SGGVVKNNFVPTNVGSMAF-NH2 (also: N-terminal biotin when captured on the chip) [human α-CGRP K35M (19-37)] | 100%
SGGVVKNNFVATNVGSKAF-NH2 [human α-CGRP P29A (19-37)] | 100%
B1 | ~40%
SCNTATCVTHRLAGLLSRSGGVVKDNFVPTNVGSEAF-NH2 (ends and bridges not checked; also: N-terminal biotin when captured on the chip, also called rat α (1-37); α-rat) [rat α-CGRP (1-37)] | 100%
